Laboratory results published in US20160272683A1 (Novo Nordisk, published 2016).
Numbered stars: 1 amine (or outer) side, 2 acyl side, 3 side chain; on linkers, the order of the positions; unused ones are H or OH. * marks the point of attachment. C20 diacid = O=C(O)CCCCCCCCCCCCCCCCCCC(=O)*; C18 diacid = O=C(O)CCCCCCCCCCCCCCCCC(=O)*; γGlu = O=C(O)[C@H](CCC(=O)[*:2])N[*:1]; AEEA = NCCOCCOCC(=O)O

T1: human calcitonin receptor (human, UniProt P30988 25-474)
T1 construct: whole, on cells; Assay VII: membranes on SPA beads; also called hCT-R; hCTR
T1 sequence (looked up): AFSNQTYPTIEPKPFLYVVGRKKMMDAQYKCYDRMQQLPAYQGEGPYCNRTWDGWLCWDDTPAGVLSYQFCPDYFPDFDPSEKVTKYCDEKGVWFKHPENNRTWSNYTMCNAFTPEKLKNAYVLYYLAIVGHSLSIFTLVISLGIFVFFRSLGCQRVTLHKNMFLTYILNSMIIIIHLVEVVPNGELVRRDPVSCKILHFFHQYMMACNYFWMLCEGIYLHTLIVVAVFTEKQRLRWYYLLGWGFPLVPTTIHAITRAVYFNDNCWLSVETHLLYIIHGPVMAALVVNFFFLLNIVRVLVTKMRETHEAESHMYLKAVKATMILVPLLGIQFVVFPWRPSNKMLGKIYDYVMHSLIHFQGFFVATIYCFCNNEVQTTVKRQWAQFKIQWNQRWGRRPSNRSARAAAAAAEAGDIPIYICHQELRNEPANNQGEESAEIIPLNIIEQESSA

T2: human amylin receptor (amylin 3(a) receptor: human calcitonin receptor with RAMP-3) (human, UniProt P30988 25-474; O60896 24-148, limits assumed)
T2 construct: whole, on cells; Assay V: membranes of the Amylin 3(a)/CRE-luc BHK cells on SPA beads; also called hAmylin-R
T2 sequence (looked up) 1: T1 sequence (looked up)
T2 sequence (looked up) 2: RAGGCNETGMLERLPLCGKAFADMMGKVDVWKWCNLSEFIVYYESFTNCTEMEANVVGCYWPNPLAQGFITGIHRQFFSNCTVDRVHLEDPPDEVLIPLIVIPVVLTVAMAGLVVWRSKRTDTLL

B1: [N-terminal(C20 diacid-gGlu-2xOEG), des1, 4G, 9V, 15Q, 21Q, 23Y, 30S, 31G, 32T, 33Y]mimylin (peptide)
peptide: {C20 diacid-γGlu-AEEA-AEEA}-ASGLSTAVLGRLSQELHELQTYPRTETGSGTY-NH2
SMILES: CC(C)C[C@H](NC(=O)CNC(=O)[C@H](CO)NC(=O)[C@H](C)NC(=O)COCCOCCNC(=O)COCCOCCNC(=O)CC[C@H](NC(=O)CCCCCCCCCCCCCCCCCCC(=O)O)C(=O)O)C(=O)N[C@@H](CO)C(=O)N[C@H](C(=O)N[C@@H](C)C(=O)N[C@H](C(=O)N[C@@H](CC(C)C)C(=O)NCC(=O)N[C@@H](CCCNC(=N)N)C(=O)N[C@@H](CC(C)C)C(=O)N[C@@H](CO)C(=O)N[C@@H](CCC(N)=O)C(=O)N[C@@H](CCC(=O)O)C(=O)N[C@@H](CC(C)C)C(=O)N[C@@H](Cc1c[nH]cn1)C(=O)N[C@@H](CCC(=O)O)C(=O)N[C@@H](CC(C)C)C(=O)N[C@@H](CCC(N)=O)C(=O)N[C@H](C(=O)N[C@@H](Cc1ccc(O)cc1)C(=O)N1CCC[C@H]1C(=O)N[C@@H](CCCNC(=N)N)C(=O)N[C@H](C(=O)N[C@@H](CCC(=O)O)C(=O)N[C@H](C(=O)NCC(=O)N[C@@H](CO)C(=O)NCC(=O)N[C@H](C(=O)N[C@@H](Cc1ccc(O)cc1)C(N)=O)[C@@H](C)O)[C@@H](C)O)[C@@H](C)O)[C@@H](C)O)C(C)C)[C@@H](C)O
notes: mimylin derivative; des1 = residue 1 deleted; also called Ex. #120; 120
B2: [N-terminal(C20 diacid-gGlu), des1, 4G, 9T, 15Q, 21Q, 23Y, 25P, 30S, 31G, 32T, 33Y]mimylin (peptide)
peptide: {C20 diacid-γGlu}-ASGLSTATLGRLSQELHELQTYPPTETGSGTY-NH2
SMILES: CC(C)C[C@H](NC(=O)CNC(=O)[C@H](CO)NC(=O)[C@H](C)NC(=O)CC[C@H](NC(=O)CCCCCCCCCCCCCCCCCCC(=O)O)C(=O)O)C(=O)N[C@@H](CO)C(=O)N[C@H](C(=O)N[C@@H](C)C(=O)N[C@H](C(=O)N[C@@H](CC(C)C)C(=O)NCC(=O)N[C@@H](CCCNC(=N)N)C(=O)N[C@@H](CC(C)C)C(=O)N[C@@H](CO)C(=O)N[C@@H](CCC(N)=O)C(=O)N[C@@H](CCC(=O)O)C(=O)N[C@@H](CC(C)C)C(=O)N[C@@H](Cc1c[nH]cn1)C(=O)N[C@@H](CCC(=O)O)C(=O)N[C@@H](CC(C)C)C(=O)N[C@@H](CCC(N)=O)C(=O)N[C@H](C(=O)N[C@@H](Cc1ccc(O)cc1)C(=O)N1CCC[C@H]1C(=O)N1CCC[C@H]1C(=O)N[C@H](C(=O)N[C@@H](CCC(=O)O)C(=O)N[C@H](C(=O)NCC(=O)N[C@@H](CO)C(=O)NCC(=O)N[C@H](C(=O)N[C@@H](Cc1ccc(O)cc1)C(N)=O)[C@@H](C)O)[C@@H](C)O)[C@@H](C)O)[C@@H](C)O)[C@@H](C)O)[C@@H](C)O
notes: mimylin derivative; des1 = residue 1 deleted
B3: [N-terminal(C20 diacid-gGlu), des1, 4G, 8L, 9V, 15Q, 21Q, 23Y, 30S, 31Q, 32T, 33Y]mimylin (peptide)
peptide: {C20 diacid-γGlu}-ASGLSTLVLGRLSQELHELQTYPRTETGSQTY-NH2
SMILES: CC(C)C[C@H](NC(=O)CNC(=O)[C@H](CO)NC(=O)[C@H](C)NC(=O)CC[C@H](NC(=O)CCCCCCCCCCCCCCCCCCC(=O)O)C(=O)O)C(=O)N[C@@H](CO)C(=O)N[C@H](C(=O)N[C@@H](CC(C)C)C(=O)N[C@H](C(=O)N[C@@H](CC(C)C)C(=O)NCC(=O)N[C@@H](CCCNC(=N)N)C(=O)N[C@@H](CC(C)C)C(=O)N[C@@H](CO)C(=O)N[C@@H](CCC(N)=O)C(=O)N[C@@H](CCC(=O)O)C(=O)N[C@@H](CC(C)C)C(=O)N[C@@H](Cc1c[nH]cn1)C(=O)N[C@@H](CCC(=O)O)C(=O)N[C@@H](CC(C)C)C(=O)N[C@@H](CCC(N)=O)C(=O)N[C@H](C(=O)N[C@@H](Cc1ccc(O)cc1)C(=O)N1CCC[C@H]1C(=O)N[C@@H](CCCNC(=N)N)C(=O)N[C@H](C(=O)N[C@@H](CCC(=O)O)C(=O)N[C@H](C(=O)NCC(=O)N[C@@H](CO)C(=O)N[C@@H](CCC(N)=O)C(=O)N[C@H](C(=O)N[C@@H](Cc1ccc(O)cc1)C(N)=O)[C@@H](C)O)[C@@H](C)O)[C@@H](C)O)[C@@H](C)O)C(C)C)[C@@H](C)O
notes: as for B2
B4: [N-terminal(C18 diacid-gGlu), des1, 4G, 15Q, 21Q, 23Y, 30S, 31G, 32T, 33Y]mimylin (peptide)
peptide: {C18 diacid-γGlu}-ASGLSTAALGRLSQELHELQTYPRTETGSGTY-NH2
SMILES: CC(C)C[C@H](NC(=O)CNC(=O)[C@H](CO)NC(=O)[C@H](C)NC(=O)CC[C@H](NC(=O)CCCCCCCCCCCCCCCCC(=O)O)C(=O)O)C(=O)N[C@@H](CO)C(=O)N[C@H](C(=O)N[C@@H](C)C(=O)N[C@@H](C)C(=O)N[C@@H](CC(C)C)C(=O)NCC(=O)N[C@@H](CCCNC(=N)N)C(=O)N[C@@H](CC(C)C)C(=O)N[C@@H](CO)C(=O)N[C@@H](CCC(N)=O)C(=O)N[C@@H](CCC(=O)O)C(=O)N[C@@H](CC(C)C)C(=O)N[C@@H](Cc1c[nH]cn1)C(=O)N[C@@H](CCC(=O)O)C(=O)N[C@@H](CC(C)C)C(=O)N[C@@H](CCC(N)=O)C(=O)N[C@H](C(=O)N[C@@H](Cc1ccc(O)cc1)C(=O)N1CCC[C@H]1C(=O)N[C@@H](CCCNC(=N)N)C(=O)N[C@H](C(=O)N[C@@H](CCC(=O)O)C(=O)N[C@H](C(=O)NCC(=O)N[C@@H](CO)C(=O)NCC(=O)N[C@H](C(=O)N[C@@H](Cc1ccc(O)cc1)C(N)=O)[C@@H](C)O)[C@@H](C)O)[C@@H](C)O)[C@@H](C)O)[C@@H](C)O
notes: mimylin derivative; des1 = residue 1 deleted; also called Ex. #110; 110
B5: [N-terminal(C20 diacid-gGlu), des1, 4G, 9V, 12K, 15Q, 21Q, 23Y, 25P, 30S, 31G, 32T, 33Y]mimylin (peptide)
peptide: {C20 diacid-γGlu}-ASGLSTAVLGKLSQELHELQTYPPTETGSGTY-NH2
SMILES: CC(C)C[C@H](NC(=O)CNC(=O)[C@H](CO)NC(=O)[C@H](C)NC(=O)CC[C@H](NC(=O)CCCCCCCCCCCCCCCCCCC(=O)O)C(=O)O)C(=O)N[C@@H](CO)C(=O)N[C@H](C(=O)N[C@@H](C)C(=O)N[C@H](C(=O)N[C@@H](CC(C)C)C(=O)NCC(=O)N[C@@H](CCCCN)C(=O)N[C@@H](CC(C)C)C(=O)N[C@@H](CO)C(=O)N[C@@H](CCC(N)=O)C(=O)N[C@@H](CCC(=O)O)C(=O)N[C@@H](CC(C)C)C(=O)N[C@@H](Cc1c[nH]cn1)C(=O)N[C@@H](CCC(=O)O)C(=O)N[C@@H](CC(C)C)C(=O)N[C@@H](CCC(N)=O)C(=O)N[C@H](C(=O)N[C@@H](Cc1ccc(O)cc1)C(=O)N1CCC[C@H]1C(=O)N1CCC[C@H]1C(=O)N[C@H](C(=O)N[C@@H](CCC(=O)O)C(=O)N[C@H](C(=O)NCC(=O)N[C@@H](CO)C(=O)NCC(=O)N[C@H](C(=O)N[C@@H](Cc1ccc(O)cc1)C(N)=O)[C@@H](C)O)[C@@H](C)O)[C@@H](C)O)[C@@H](C)O)C(C)C)[C@@H](C)O
notes: as for B2
B6: [N-terminal(C20 diacid-gGlu), des1, 4G, 9V, 15Q, 21Q, 23Y, 30S, 31Q, 32T, 33Y]mimylin (peptide)
peptide: {C20 diacid-γGlu}-ASGLSTAVLGRLSQELHELQTYPRTETGSQTY-NH2
SMILES: CC(C)C[C@H](NC(=O)CNC(=O)[C@H](CO)NC(=O)[C@H](C)NC(=O)CC[C@H](NC(=O)CCCCCCCCCCCCCCCCCCC(=O)O)C(=O)O)C(=O)N[C@@H](CO)C(=O)N[C@H](C(=O)N[C@@H](C)C(=O)N[C@H](C(=O)N[C@@H](CC(C)C)C(=O)NCC(=O)N[C@@H](CCCNC(=N)N)C(=O)N[C@@H](CC(C)C)C(=O)N[C@@H](CO)C(=O)N[C@@H](CCC(N)=O)C(=O)N[C@@H](CCC(=O)O)C(=O)N[C@@H](CC(C)C)C(=O)N[C@@H](Cc1c[nH]cn1)C(=O)N[C@@H](CCC(=O)O)C(=O)N[C@@H](CC(C)C)C(=O)N[C@@H](CCC(N)=O)C(=O)N[C@H](C(=O)N[C@@H](Cc1ccc(O)cc1)C(=O)N1CCC[C@H]1C(=O)N[C@@H](CCCNC(=N)N)C(=O)N[C@H](C(=O)N[C@@H](CCC(=O)O)C(=O)N[C@H](C(=O)NCC(=O)N[C@@H](CO)C(=O)N[C@@H](CCC(N)=O)C(=O)N[C@H](C(=O)N[C@@H](Cc1ccc(O)cc1)C(N)=O)[C@@H](C)O)[C@@H](C)O)[C@@H](C)O)[C@@H](C)O)C(C)C)[C@@H](C)O
notes: as for B2
B7: [N-terminal(C20 diacid-gGlu), des1, 4G, 15Q, 21Q, 23Y, 25H, 30S, 31G, 32T, 33Y]mimylin (peptide)
peptide: {C20 diacid-γGlu}-ASGLSTAALGRLSQELHELQTYPHTETGSGTY-NH2
SMILES: CC(C)C[C@H](NC(=O)CNC(=O)[C@H](CO)NC(=O)[C@H](C)NC(=O)CC[C@H](NC(=O)CCCCCCCCCCCCCCCCCCC(=O)O)C(=O)O)C(=O)N[C@@H](CO)C(=O)N[C@H](C(=O)N[C@@H](C)C(=O)N[C@@H](C)C(=O)N[C@@H](CC(C)C)C(=O)NCC(=O)N[C@@H](CCCNC(=N)N)C(=O)N[C@@H](CC(C)C)C(=O)N[C@@H](CO)C(=O)N[C@@H](CCC(N)=O)C(=O)N[C@@H](CCC(=O)O)C(=O)N[C@@H](CC(C)C)C(=O)N[C@@H](Cc1c[nH]cn1)C(=O)N[C@@H](CCC(=O)O)C(=O)N[C@@H](CC(C)C)C(=O)N[C@@H](CCC(N)=O)C(=O)N[C@H](C(=O)N[C@@H](Cc1ccc(O)cc1)C(=O)N1CCC[C@H]1C(=O)N[C@@H](Cc1c[nH]cn1)C(=O)N[C@H](C(=O)N[C@@H](CCC(=O)O)C(=O)N[C@H](C(=O)NCC(=O)N[C@@H](CO)C(=O)NCC(=O)N[C@H](C(=O)N[C@@H](Cc1ccc(O)cc1)C(N)=O)[C@@H](C)O)[C@@H](C)O)[C@@H](C)O)[C@@H](C)O)[C@@H](C)O
notes: as for B2

How the values were obtained:
[1] = molecular target: T1, human calcitonin receptor; assay: SPA competition vs 125I-calcitonin, membranes with human CTR (Assay VII)
Procedure, shortened: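 SPA competition on membranes from BHK tk'ts 13 cells stably expressing human calcitonin receptor plus CRE-luciferase reporter; membranes 35 ng/μL final with 0.05 mg/well beads.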

[2] = molecular target: T2, human amylin receptor (amylin 3(a) …); assay: SPA competition vs 125I-rat amylin, membranes with human CTR + RAMP-3 (Assay V)

| Binder | IC50 [1] [nM] | IC50 [2] [nM] |
| --- | --- | --- |
| B1 | 0.091 | 0.166 |
| B2 | 0.053 | 0.216 |
| B3 | 0.193 | 0.225 |
| B4 | 0.057 | 0.122 |
| B5 | 0.651 | 0.72 |
| B6 | 0.067 | 0.152 |
| B7 | 0.15 | 0.166 |
